Laboratory results: the supplement of paper PMC9112550, “Optimization of the antimicrobial peptide Bac7 by deep mutational scanning” (BMC Biology, 2022)

System: Escherichia coli TOP10
Experiment: shrunken log2 fold change of peptide-encoding DNA abundance (4.5 h post-induction vs induction); higher = less antimicrobial activity (less host growth inhibition)
Details: time post-induction: 4.5 h; library: site-saturation at positions 5, 18, 19, 20
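Also: peptides expressed intracellularly from a pBAD plasmid library in pooled LB shake-flask culture, induced with 0.3% L-arabinose, DNA abundance read by NGS, three biological replicates, DESeq2 with apeglm shrinkage.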

| Sequence | shrunken log2 fold change |
| --- | --- |
| RRIRVRPPRLPRPRPRPSLGPRP | 0.0433 |
| RRIRSRPPRLPRPRPRPASSPRP | -0.201 |
| RRIRLRPPRLPRPRPRPDTCPRP | -0.149 |
| RRIRHRPPRLPRPRPRPWAAPRP | -0.0958 |
| RRIRVRPPRLPRPRPRPACNPRP | -0.0138 |
| RRIRKRPPRLPRPRPRPECGPRP | 1.01 |
| RRIRQRPPRLPRPRPRPITIPRP | -0.239 |
| RRIRCRPPRLPRPRPRPFASPRP | 0.0328 |
| RRIRARPPRLPRPRPRPVHWPRP | 0.579 |
| RRIRYRPPRLPRPRPRPWDQPRP | 0.0123 |
| RRIRPRPPRLPRPRPRPFREPRP | 0.261 |
| RRIRFRPPRLPRPRPRPGWIPRP | 0.0799 |
| RRIRTRPPRLPRPRPRPEGKPRP | 0.0733 |
| RRIRWRPPRLPRPRPRPQQAPRP | -0.000157 |
| RRIRWRPPRLPRPRPRPWWIPRP | 0.109 |
| RRIRARPPRLPRPRPRPMYFPRP | -0.154 |
| RRIRSRPPRLPRPRPRPLSQPRP | -0.00748 |
| RRIRSRPPRLPRPRPRPMTAPRP | -0.0379 |
| RRIRPRPPRLPRPRPRPMGSPRP | -0.0938 |
| RRIRVRPPRLPRPRPRPITWPRP | -0.182 |
| RRIRARPPRLPRPRPRPNYTPRP | -0.329 |
| RRIRIRPPRLPRPRPRPVGHPRP | -0.0495 |
| RRIRYRPPRLPRPRPRPCMVPRP | -0.251 |
| RRIRGRPPRLPRPRPRPWYPPRP | -0.119 |
| RRIRWRPPRLPRPRPRPWFRPRP | -0.251 |

| Sequence | shrunken log2 fold change |
| --- | --- |
| RRIRIRPPRLPRPRPRPANMPRP | -0.45 |
| RRIRVRPPRLPRPRPRPKFKPRP | -0.2 |
| RRIRGRPPRLPRPRPRPIVNPRP | 0.187 |
| RRIRQRPPRLPRPRPRPMDKPRP | 0.0321 |
| RRIRNRPPRLPRPRPRPHSHPRP | -0.472 |
| RRIRKRPPRLPRPRPRPSEEPRP | 0.1 |
| RRIRRRPPRLPRPRPRPDCWPRP | 0.676 |
| RRIRQRPPRLPRPRPRPGLQPRP | -0.0156 |
| RRIRMRPPRLPRPRPRPMAFPRP | 0.102 |
| RRIRKRPPRLPRPRPRPHNQPRP | 0.0277 |
| RRIRSRPPRLPRPRPRPRCTPRP | 0.0731 |
| RRIRLRPPRLPRPRPRPRMTPRP | 0.206 |
| RRIRQRPPRLPRPRPRPRLQPRP | 0.501 |
| RRIRLRPPRLPRPRPRPLIKPRP | -0.273 |
| RRIRLRPPRLPRPRPRPWMHPRP | 0.0873 |
| RRIRIRPPRLPRPRPRPKVSPRP | 0.0423 |
| RRIRTRPPRLPRPRPRPEICPRP | -0.0438 |
| RRIRKRPPRLPRPRPRPCMDPRP | -0.122 |
| RRIRERPPRLPRPRPRPKGDPRP | -0.0914 |
| RRIRVRPPRLPRPRPRPTVTPRP | 0.167 |
| RRIRYRPPRLPRPRPRPNEAPRP | -0.017 |
| RRIRWRPPRLPRPRPRPKRAPRP | 0.797 |
| RRIRPRPPRLPRPRPRPQSTPRP | -0.136 |
| RRIRHRPPRLPRPRPRPEGMPRP | -0.0777 |
| RRIRGRPPRLPRPRPRPRARPRP | 1.09 |

| Sequence | shrunken log2 fold change |
| --- | --- |
| RRIRARPPRLPRPRPRPHASPRP | -0.0111 |
| RRIRYRPPRLPRPRPRPYFWPRP | -1.4 |
| RRIRERPPRLPRPRPRPQILPRP | -0.179 |
| RRIRNRPPRLPRPRPRPVQPPRP | 0.0494 |
| RRIRQRPPRLPRPRPRPRPFPRP | 0.149 |
| RRIRPRPPRLPRPRPRPQLFPRP | 0.0893 |
| RRIRLRPPRLPRPRPRPSNIPRP | -0.103 |
| RRIRLRPPRLPRPRPRPKRRPRP | -0.259 |
| RRIRARPPRLPRPRPRPCNKPRP | -0.43 |
| RRIRIRPPRLPRPRPRPQSSPRP | 0.00983 |
| RRIRLRPPRLPRPRPRPTFVPRP | -0.162 |
| RRIRKRPPRLPRPRPRPMCFPRP | 0.265 |
| RRIRLRPPRLPRPRPRPPNHPRP | -0.246 |
| RRIRWRPPRLPRPRPRPFQCPRP | -0.0406 |
| RRIRDRPPRLPRPRPRPLQGPRP | 0.287 |
| RRIRRRPPRLPRPRPRPVNVPRP | -0.0902 |
| RRIRDRPPRLPRPRPRPASQPRP | 0.0836 |
| RRIRERPPRLPRPRPRPYSSPRP | -0.0288 |
| RRIRCRPPRLPRPRPRPVTQPRP | -0.15 |
| RRIRWRPPRLPRPRPRPVCRPRP | 0.353 |
| RRIRSRPPRLPRPRPRPQCRPRP | -0.0553 |
| RRIRIRPPRLPRPRPRPARRPRP | 0.72 |
| RRIRKRPPRLPRPRPRPDETPRP | 3.04 |
| RRIRFRPPRLPRPRPRPAINPRP | -0.239 |
| RRIRARPPRLPRPRPRPDKEPRP | 0.0435 |

| Sequence | shrunken log2 fold change |
| --- | --- |
| RRIRVRPPRLPRPRPRPQGAPRP | 0.168 |
| RRIRRRPPRLPRPRPRPGYFPRP | -0.209 |
| RRIRSRPPRLPRPRPRPVKDPRP | -0.315 |
| RRIRSRPPRLPRPRPRPDCIPRP | -0.163 |
| RRIRSRPPRLPRPRPRPQMKPRP | -0.32 |
| RRIRYRPPRLPRPRPRPDTGPRP | -0.808 |
| RRIRERPPRLPRPRPRPGKGPRP | 0.208 |
| RRIRARPPRLPRPRPRPMKRPRP | 0.223 |
| RRIRWRPPRLPRPRPRPSQAPRP | -0.126 |
| RRIRDRPPRLPRPRPRPAMYPRP | -0.0257 |
| RRIRARPPRLPRPRPRPADAPRP | 0.473 |
| RRIRNRPPRLPRPRPRPRPYPRP | -0.25 |
| RRIRQRPPRLPRPRPRPYVRPRP | -0.216 |
| RRIRLRPPRLPRPRPRPKHVPRP | -0.0799 |
| RRIRLRPPRLPRPRPRPLTLPRP | 0.134 |
| RRIRARPPRLPRPRPRPIMPPRP | 0.167 |
| RRIRERPPRLPRPRPRPPMTPRP | -0.163 |
| RRIRMRPPRLPRPRPRPWSMPRP | -0.156 |
| RRIRFRPPRLPRPRPRPKLGPRP | -0.0528 |
| RRIRCRPPRLPRPRPRPSNTPRP | -0.417 |
| RRIRSRPPRLPRPRPRPMEDPRP | 0.189 |
| RRIRERPPRLPRPRPRPYGMPRP | -0.207 |
| RRIRSRPPRLPRPRPRPHWVPRP | -0.166 |
| RRIRMRPPRLPRPRPRPFVCPRP | 0.137 |
| RRIRDRPPRLPRPRPRPACAPRP | 0.705 |

| Sequence | shrunken log2 fold change |
| --- | --- |
| RRIRSRPPRLPRPRPRPFLKPRP | -0.632 |
| RRIRIRPPRLPRPRPRPPEGPRP | 0.115 |
| RRIRKRPPRLPRPRPRPRCHPRP | 0.237 |
| RRIRCRPPRLPRPRPRPKVNPRP | -0.542 |
| RRIRQRPPRLPRPRPRPYSGPRP | -0.126 |
| RRIRFRPPRLPRPRPRPNTAPRP | -0.986 |
| RRIRWRPPRLPRPRPRPDTDPRP | 0.225 |
| RRIRARPPRLPRPRPRPDETPRP | 0.00253 |
| RRIRFRPPRLPRPRPRPHNPPRP | -0.288 |
| RRIRNRPPRLPRPRPRPHGHPRP | -0.0841 |
| RRIRYRPPRLPRPRPRPQFYPRP | -1.86 |
| RRIRLRPPRLPRPRPRPCNVPRP | -0.3 |
| RRIRRRPPRLPRPRPRPCVMPRP | 0.113 |
| RRIRRRPPRLPRPRPRPNRKPRP | 0.105 |
| RRIRHRPPRLPRPRPRPIWWPRP | 0.0995 |
| RRIRNRPPRLPRPRPRPPNYPRP | -0.564 |
| RRIRIRPPRLPRPRPRPADGPRP | 0.276 |
| RRIRFRPPRLPRPRPRPYYDPRP | -0.072 |
| RRIRDRPPRLPRPRPRPTSLPRP | -0.0226 |
| RRIRLRPPRLPRPRPRPDFSPRP | 0.177 |
| RRIRYRPPRLPRPRPRPARQPRP | 0.279 |
| RRIRDRPPRLPRPRPRPQKCPRP | 0.0207 |
| RRIRTRPPRLPRPRPRPKFLPRP | 0.0687 |
| RRIRYRPPRLPRPRPRPWFDPRP | -0.415 |
| RRIRIRPPRLPRPRPRPFVEPRP | -0.37 |
